A short description of this data set: label from the status in PepcDB records.
With “MSKSLGFKVSVSFVNIFALPFFFVLLYGSGFVGAKLGLPHSTPLSFLSLRFMAAGLILLIIAKLIGNQLPNWREAIHISVAGSLTVCLFSVGVFVSIDMGLSPAVSALIVALQPILVALFARKLVNEQLNLAQWFGLLFGFLGVIVVVIDSIETTSFSWVAIAMSVLALFGVTFGSLYQKRYCADMEIFYGGAIQSLVSGLICLALLPFFESFKVVWTGEFIISLVYMVVGVSLGALSLLYIMIQRGEVSRVASVFYLVPVSAAVSAYLLFGETIESTTLFGASIIALGIFLTNRKSQNNMVVSMNK”, the protein production result is recorded as “failed”.

For “AGNRASNQGNSQPQQKYTVMSGTPEKILEHFLETIRLEATLNEATDSVLNDFIMMHCVFMPNTQLCPALVAHYHAQPSQGTEQEKMDYALNNKRRVIRLVLQWAAMYGDLLQEDDVSMAFLEEFYVSVSDDARM”, the protein production result is given as “failed”. Take “MTSLEEITKAIMADSQNKVFTEKNIEPLFAAPKTARINIVGQAPGIKAQESRLYWNDKSGDRLREWMGVDYDTFYHSGYFAVIPMDFYYPGKGKSGDLPPRKGFAQKWHQPILDLLPDIQLTILIGNYAQKYYLHQKSSVKLTDTVAHYKKYLPDYFPLVHPSPRNQIWMSRHPWFEAQVVPDLKKIIQQIIQSS”: the protein production entry is “not failed”.

Take “YLKDLSLLISNDKQTILYAPTWKGNSVSKVKNDVFQIISDMNYLEEKIGSDYNVLIKVHPFLYSEASKVSELKGKLIPDFIDTNQLLSTVDILITDYSSIFFDFLVTDRPILFYMWDADDYNKQRGKYINNEDLPGPVLYNVRELVEAIGNIHQVKSEFQTNYEKNKVKFTNHDDGNVTKRVVEKIFK”: the protein production entry was “failed”. The value for “MKTTALRLYGKRDLRLETFDLPEMQEDEILATVVTDSLCLSSWKEANLGENHKKVPDDVATNPIIIGHEFCGDILAVGKKWQHKFQPGQRYVIQANLQLPDRPDCPGYSFPWVGGEATHVVIPNEVMEQDCLLAYDGETYFEGSLVEPLSCVIGAFNANYHLQEGSYNHTMGIRPQGRMLILGGTGPMGLLAIDYALHGPVNPSQLVITDTDNDKLSYARKHYPSEPQTLIHYLNAADAAFDTLMALSGGHGFDDIFVFVPNEGLVTLASSLLATDGCLNFFAGPQDKHFSAPINFYDVHYAFTHYVGTSGGNTDDMRAAVKLIEEKKVQAAKVVTHILGLNAAGETTLELPAVGGGKKLVYTGKYLPLTSLTQIQDQALAAILARHQGIWSGEAEQYLLTHAEAISHD” was “failed”; that for “MVGVRMTKKVLIVEDNELNMKLFHDLLEAQGYETLQTREGLSALSIARENKPDLILMDIQLPEISGLEVTKWLKEDDDLAHIPVVAVTAFAMKGDEERIREGGCEAYISKPISVVHFLETIKRLLERQPA” was “not failed”. The value for “MSSSTALAPSTAPNIIQGGMGIGVSSWRLARHVARRGEIGIVSGTGIDSVVVRELQEGDPHDRRQMLADYPDEEIADHLVERFYRPDGLPADEPYDLLNMHPFEPSVRSQRILAAATYTEVRLAAAGHEGMIGMNLLAKLKRYTLPCIYGALLSDIDIVSIGAGIPLEEARQIPKLAAGEPAALRLDVDTSQAPDADDSYAYRFDPADVLDAPPTLDRPLFLPIISSDALARIMDAKLPDRRVDGWVVEGPVAGGHNAPPRNKNYADDGTPLYDERDEADLEAIRSLGKPFYLAGGHGSPEGLRAAHEAGAAGIQVGSLFSLTDESGYPPSTTRRLIRGLHTGEIEVSTEGRVSSTGFPFKVLTADGTLADAEVYERRARICDLGYLREPYLDEEGRLMGRCPAEPVKTYVSRGGAPEETEGRACLCNALMANIGLGQQRGARAEPPLFTGGDALEDLPLGSAEDPQYDADDVLNYLYQDVRPPRVSSPLRRPQPAD” was “failed”; that for “MSVDAVEIETLRKTVEDYFCFCYGKALGKSTVVPVPYEKMLRDQSAVVVQGLPEGVAFKHPENYDLATLKWILENKAGISFIIKRPFLEPKKHVGG” was “not failed”; that for “MTDAHTVCPKFESAFQLLGKRWTGLIINVLLTGPKRFKQVAAEIPQMSDRVLAERLKELEEMDICLRQVYPETPVRIEYELTEKGKALQEVMLEVQCWADKWVEVPN” was “failed”. Take “MTGASRARMHQLEREGDRPAKRVNKLLSDQETMIGAVLLGNNLINILASALATQVLTTLIPGPWGVAVATAAMTVLILIFAEVLPKTLAIVRSDDVARALSAPTLFIVRLFGPIIYAIQWIVRRTLRVFGVKLDMAVDVLAAHEEIRGAVDYHHSEGLVETDDRRMLGGVLDLSDMDVSEIMVHRKSMVLLDAGLPARELVDAVLEAQHTRIPLYRDQPDNIVGVLHARDLLKALAECPTGVEGLDIAAILREPWFIPDATNLKDQLNAFLKRKNHFALVVDEYGALQGLVTLEDILEEIVGEIEDEHDTTLDGVRRQGDGSVNVDGHVTVRDLNRAMDWRLPEGEAVTIAGLVIHEAQMIPEPGQTFIFYRHRFQVLRRQRNQITALRISARLDDDSDA”: the protein production result was “failed”. The value for “MEIILLIIAAVVLFYFYNTLKEYLKNPLNPKTKTEEYDLKNDPYLLAQSSPLDKFKQTQTGAYMRLLKFLDIQKNALDNALRTLFIHELEQPLNSEQQNLAKELLNEPVDKKENFESLCQEIADHTHGEYTKRLKLVEFLMLLAYADGILDSKEKELFLDVGVFLQIDNQDFNELYDNFERFNAIEIPMSLEEAKSLFEIQTHTTKQDLEKKALDLSAPYYHKMNDNKRYSEQDFISLKKIAIASQLLENDLKDS” was “failed”. Regarding “NSAAIQEMNREVEAAAKRTSPVFLTGEAGSPFETVARYFHKNGTPWVSPARVEYLIDMPMELLQKAEGGVLYVGDIAQYSRNIQTGITFIIGKAERCRVRVIASCSYAAGSDGISCEEKLAGLFSESVVRIPPLS”, the protein production entry is “failed”. For the sequence “MNIRPAATLVLTRDTDNGIEVLLLQRTWEAVFLPGYYVFPGGAVNAQEPEGRAHVVGVEDADISQTMSLDEGGADYMLAAVRECFEEAGILLAQDASGQLIGADHGVHSERMALFQEEISLAQLCAKHGLTVPLDRLAYLSHWVTPPGPPRRFDTRFFVAVAPEGQVASHDGTETIDHVWIAPAQALEEHRAGARLLGLPTIRTLRVLSEFGTTGEMMRYAHANPPEAFPDQPWPAVRKGKPVMLEPNAPAYDEAVKLDPEGEGSTRAEIVPGEPVEVAAGVIRLTAPNPGMMTGPGTNTYILGHERFTVLDPGPANEAHIERILELTGGVVDQVVVTHTHMDHSPAVAQLKARTGCRVFGWPAPEGAGQDQGFTPDDQPGHEDLIVTEAGILKVLHTPGHASNHLCYLLLDQELLFSGDHIMQGSTVVINPPDGDMKAYIDSMYDLLAEPVRFIAPAHGFLMGQPAAVMDYLITHRLSREHKVWRALEALAPVSLKDLTARAYDDVPAAIHGLAARSALAHLLKLEAEHRAFADDGLWQVVAPD”, the protein production result was “failed”. The value for “MSRISVVIPAYNEASDLPQTIQGIRDLSLECEVIVVDDGSVDDTKKIAERLADITVALPVNQGKGQALMEGWKRAEGTHIVMLDADLGSTSSEMAHLLPPLLTNEADLVIGMLPTHSSKKGFGLVKKRAQQYIAKRTGAFLTAPLSGQRAFHRRWLPSLLEENVQGFGVETQMLLHFLLRGAVVKEIPTLMAHRYTGKTISGFIHRFQQWIDIERALRGSNTLEHHHHHH” was “not failed”; that for “MNRRDFLQFGLRGIVVAGLGKGFYNTTSEQVEIVRTSVKIRNLPAALQGLKIGLLTDLHASFVVSSETIRSAGRLLMAEKPDLIVMTGDYISGSTRFLSGSVGQFKKEYLSKCIDALSGLKAPLGIYGVLGNHDFWSGPESVKAICEAFTRQMGMVWLRNSSVEIRRGRGSLHLLGVDDYWEPSCSLAAACKGVDTDGIKILLSHNPDINDEIFLLRERIDLVLSGHTHGGQVVVPFLGQPVMPSKFGQKYRAGLVRDGDRQTYISRGVGCLLAPIRLNCPPEATVLTLTLEHHHHHH” was “not failed”; that for “MAQKLEAKGGEMGDVWDDGVYENVRKVYVGQAQYGIAFVKFEYVNGSQVVVGDEHGKKTELGVEEFEIDADDYIVYVEGYREKVNDMTSEMITFLSIKTFKGKTSHPIEKRPGVKFVLHGGKIVGFHGRSTDVLHSLGAYVSLSSTIKLLGKWIKVEQKGEGPGLRCSHGIAQVGNKIYSFGGEFTPNQPIDKHLYVFDLETRTWSISPATGDVPHLSCLGVRMVSVGSTLYVFGGRDASRQYNGFYSFDTTTNEWKLLTPVEEGPTPRSFHSMAADEENVYVFGGVSATARLNTLDSYNIVDKKWFHCSTPGDSLTARGGAGLEVVQGKVWVVYGFNGCEVDDVHYYDPVQDKWTQVETFGVRPSERSVFASAAIGKHIVIFGGEIAMDPLAHVGPGQLTDGTFALDTETLQWERLDKFGGEEETPSSRGWTASTTATIDGKKGLVMHGGKAPTNDRFDDLFFYGIDSA” was “not failed”. Consider “DKGTALLVNRSLRFGERTAEELMTPRVKIVTLSTTDTVADLIDTASRTGFSRFPVVESDLDDAVGVVHIKHAFAVPAHRRRTARLNSLAQKVPVVPSSLDGDALMERIRSDGMQVAFVVDEYGGTAGMVTMEDLIEEIVGDVR”, for which the protein production entry is “failed”. The value for “MTQTQSLALYTVAILVGALTGGSLPLLGRVGRSDIGLSFSAGVMLGAAFFHMLPEAVEESGAGILPFVLVGFLLLFLLERFVLVHVCAEPGPNARLSQAAPLPAGIEAGHGHDHHHHGHAHVATGGALALEDDGTGCAVHTTLGLAAFLGMSAHTLVDGFALGAASGQAELGLLVFLAILAHKIPNSFSLSAILRAEGYSRGRALAMNAVFALMVPVGAGIYLVLRELVRVETFTAAALAASAGTFLHLSLSDILPDLHRRGGSKWVLSGALLAGLAVMWGLRALNHAH” was “failed”; that for “MNANENVSDDRFAEMVWEAVSGGATLKDVHGIPQDMMEGLYAHAYDFYHKGRLDEAETFFRFLCIYDFYNPDYIMGLAAVCQLKKQFQKAVDLYAVAFALSKNDYRPVFFTGQCQLFMRKAAKARQCFELVCEQSGDESLRDKAQVYLDSLQEAEAEQSRQQEKEQA” was “failed”.

As to “MRAVIPYKKAGAKSRLSPVLSLQEREEFVELMLNQVISSLKGAGIEQVDILSPSVYGLEEMTEARVLLDEKDLNEALNRYLKEAEEPVLIVMADLPLLSPEHIKEISSTEKDVCIVPGKGGGTNALFIKNPSKYRVKYYGSSFLTHCSIATDSGQDFEIYDSFMAGTDIDEPEDLVELLIHGKGAAKDYIESKFRLEVKKG”, the protein production result was “failed”. The value for “MADNGQADRKERSNGVIVGTCLAFVAGMIGMAYAAVPLYDMFCRVTGYNGTTQRVEQASDLILDEKIKVTFDANVAAGLPWEFVPVQRDIDVRIGETVQIMYRAKNLASTPTTGQATFNVTPMAAGAYFNKVQCFCFTETTLEPGEEMEMPVVFFVDPEIVKPVETQGIKTLTLSYTFYPREPSKPVAQVKAKAENKL” was “not failed”. The value for “MTKTLVIIAHPDMARSRVNAAWAEALRRAGDITLRDLSALYPDGMIDGAVERSLLEAHDRIILQFPLTWYSCPPILSAWQIAILTRGWAYGPGGRALRLKTLGVALSTGSNGRDYQPDGRYGRTLEDVTVPFELMARHTGMHYLPPFTLTGVRECDDAAVAASARAYLDHVRTAKPRILASGRDDDRARTVYPLEAGAR” was “failed”; that for “MAQHTVYFPDAFLTQMREAMPSTLSFDDFLAACQRPLRRSIRVNTLKISVADFLQLTAPYGWTLTPIPWCEEGFWIERDNEDALPLGSTAEHLSGLFYIQEASSMLPVAALFADGNAPQRVMDVAAAPGSKTTQISARMNNEGAILANEFSASRVKVLHANISRCGISNVALTHFDGRVFGAAVPEMFDAILLDAPCSGEGVVRKDPDALKNWSPESNQEIAATQRELIDSAFHALRPGGTLVYSTCTLNQEENEAVCLWLKETYPDAVEFLPLGDLFPGANKALTEEGFLHVFPQIYDCEGFFVARLRKTQAIPALPAPKYKVGNFPFSPVKDREAGQIRQAATGVGLNWDENLRLWQRDKELWLFPVGIEALIGKVRFSRLGIKLAETHNKGYRWQHEAVIALASPDNMNAFELTPQEAEEWYRGRDVYPQAAPVADDVLVTFQHQPIGLAKRIGSRLKNSYPRELVRDGKLFTGNA” was “not failed”.

(Values after a protein production outcome set (Wang et al. 2014).)
